Values belong to the binder of their own block, whether it stands above or below them.
Experiments:
[1] = target: T1, PTP1B-OX (purified recombinant 37 kDa PTP1B, reversibly oxidized with H2O2) (human, UniProt P18031 1-321, catalytic Cys 215 reversibly oxidized by H2O2 (cyclic sulphenamide form)); test: in vitro Ni-NTA pull-down of purified scFv with purified PTP1B-OX, immunoblot
T1 construct: also called PTP1B-SN
T1 sequence: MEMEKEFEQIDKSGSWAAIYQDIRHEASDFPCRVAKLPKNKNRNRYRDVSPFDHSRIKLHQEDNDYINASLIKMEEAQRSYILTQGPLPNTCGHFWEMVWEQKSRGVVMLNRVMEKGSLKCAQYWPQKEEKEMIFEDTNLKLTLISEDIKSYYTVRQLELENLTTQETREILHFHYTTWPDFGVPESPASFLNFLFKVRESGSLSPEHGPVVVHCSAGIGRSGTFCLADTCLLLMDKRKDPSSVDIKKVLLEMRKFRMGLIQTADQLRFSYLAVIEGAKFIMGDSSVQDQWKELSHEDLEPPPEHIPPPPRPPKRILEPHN
Protocol: (§1) In the in vitro binding assay, purified PTP was reversibly oxidized with […] followed by a quick buffer exchange to remove H_2O_2 (FIG. 8). Purified scFv was incubated in molar excess with PTP1B-OX or with PTP under reducing condition (with 2 mM TCEP) in binding buffer (20 mM HEPES, pH 7.4, 300 mM NaCl, 0.05% BSA, 0.05% Tween-20 and 10 mM imidazole) for 2 hours at 4° C. Ni-NTA agarose was added and incubated for one hour at 4° C. Protein complex bound to Ni-NTA agarose beads was pulled down and washed (three times, 5 minutes each, at 4° C.) with binding buffer containing 20 mM imidazole to reduce non-specific binding to the beads. The protein complex was eluted from the Ni-NTA agarose beads with 500 mM imidazole (in binding buffer, pH 7.4) for 15 minutes at 4° C. with gentle shaking. The complex was separated by SDS-PAGE and PTP1B was detected with anti-PTP1B antibody (FG6) and scFv was detected with anti-HA antibody [anti-HA (3F10)-HRP, Roche] by immunoblotting. Eight different scFvs (scFvs 20, 21, 24, 28, 45, 48, 57, and 105), expressed and purified from bacterial cultures were tested by this in vitro binding experiment.

[2] = target: T2, PTP1B under reducing condition (purified recombinant 37 kDa wild type PTP1B, with TCEP) (human, UniProt P18031 1-321); test: in vitro Ni-NTA pull-down of purified scFv with purified PTP1B in 2 mM TCEP, immunoblot
T2 construct: Same protein as m1 but kept reduced (2 mM TCEP); also called reduced, active PTP1B
T2 sequence: T1 sequence
Protocol: as §1

binding result [1]: no binding
binding result [2]: no binding
B1: scFv48 (scFv)
scFv: LTQPSSVSANPGETVKITCSEGGRSSYYGWYQQKAPGSAPVTVIYDSSSRPSDIPSRFSGSKSGSTGTLTITGVQAEDEAVYYCGSTDSSTSAAIFGAGTTLTVLGQSSRSSTVTLDESGGGLQTPGRALSLVCKASGFTFSSFNMGWVRQAPGKGLEYVASISSSGSYTAYGSAVKGRATISRDNGQSTVRLQLNNLRAEDTATYYCAKAAGSAYYYTAVTPAFAGSIDAWGHGTEVIVSSTSGQAGQHHHHHHGAYPYDVPDYAS

binding result [1]: no binding
binding result [2]: no binding
B2: scFv21 (scFv)
scFv: LTQPSSVSANPGGTVKITCSGSSGSYYGWYQQKSPGSAPVTVIYDNDKRPSDVPSRFSGSKSGPTATLTITGVQAEDEAVYFCGSRDNSYVGIFGAGTTLTVLGQSSRSSAVTLDESGGGLQTPGGALSLVCKASGFTFSSYDMFWVRQAPGKGLEFVAQINSAGSYTNYGSAVKGRATISRDDGQSTVRLQLNNLRAEDTGIYFCAKSASGYYYSGSDAGDIDAWGHGTEVIVSSTSGQAGQHHHHHHGAYPYDVPDYAS

binding result [1]: no binding
binding result [2]: no binding
B3: scFv20 (scFv)
scFv: LTQPSSVSANLGGIVEITCSGSSGSYGWYQQKSPGSAPVTVIYYNDKRPSNIPSRFSGSGSGSTNTLTIAGVRAEDEAVYYCGNEDSSGAAFGAGTTLTVLGQSSRSSAVTLDESGGGLQTPGGGLSLVCKASGFTFSDYDMFWVRQAPSKGLEFVAAITSSGTGTKYGAAVKGRATISKDNGQRTVRLQLNSLGAEDTGTYYCARSDADSTTWSAGEIDAWGHGTEVIVSSTSGQAGQHHHHHHGAYPYDVPDYAS
